The values below come from the nanobody polyreactivity screen of Harvey et al. (2022).

This data set in a line: yeast display, Sf9 membrane polyspecificity reagent, FACS + sequencing; frameworks hold sequencing errors. The essentials:
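A synthetic nanobody library was expressed on Saccharomyces cerevisiae BJ5465 by galactose induction for 36–48 hours. The library was stained for 1 hour at 4 °C with 10% biotinylated, detergent-solubilized Sf9 membrane reagent and enriched with streptavidin microbeads before FACS. Low and high (top ~1%) gates were set on anti-HA fluorescence for expression and streptavidin fluorescence for reagent binding, and each polyreactivity label reflects the gate of origin.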
Consider “QVQLVESGGGLVQAGGSLRLSCAASGSIFPRNAMGWYRQAPGKERELVAAITTTGGITHYADSVKGRFTISRDNAKNTVYLLMNSLKPEDTAVYYCNASYEYNAGRVETEYDYWGQGTKVTVSS”, for which the “polyreactivity (PSR sort gate)” value is reported as “low polyreactivity”.

Regarding “QVQLVESGGGLVQAGGSLRLSCAASGSLFFLYAMGWYRQAPGKDRELVAAISRTGSTYADSVKGRFTISRDNAKTTVYLQMNSVKPEDTAVYYCAAEYRYYWYGTMNYWGQCTQVTVSS”, the “polyreactivity (PSR sort gate)” value is “low polyreactivity”.

Turning to “QVQIVESGGGLVQAGGSLRLSCAASGSIFGANDMGWYRQAPGKERELVAAISTRGGRTYYADSVKGRFTISRDNEMNTVYLHMNSLKPEDTAVYYCDTSGGRPYKYEYWGQGTQVTVSS”, the “polyreactivity (PSR sort gate)” value is recorded as “high polyreactivity”.

Consider “QVQLVESGGGLVQAGGSLRLSCAASGITFKPNTMGWYRQAPGKERELVAAIDWSGSSTYYADSVKGRFTISRDNAKNTVYLQMISLKPEDTAVYYCAADDYEYFWSYDYWGQGTQVTVSS”, for which the “polyreactivity (PSR sort gate)” value is on record as “low polyreactivity”.

Turning to “QVQLVESGGGLVQAGGSLRLSCAASGNTFYQYAMGWYRQAPGTERELVAAISSSGGSTYYADSVKGRFTISRDNAKKTVYLQMNSLKPEDTAVYYCATDKSYGYYYWGQGTQVTVSS”, the “polyreactivity (PSR sort gate)” value is “low polyreactivity”.

As to “QVQLVESCGGLVQAGGSLRLSCAASGRILSSYAMGGNRQAPGKERELVADITQRGGTTYYADSVKGRFSISRDNAKNTVYLQMNRLKPEDTAVYYCNAKSYRSYGGRGGVEYDYCGQGTQVTVSS”, the “polyreactivity (PSR sort gate)” value is “low polyreactivity”.

As for “QVQLVESGGGLVQAGGSLRLSCAAYGSIFYYYAKGWYRQAPGKERELVAAINGGDTYYADSVKGRFTISRDNAKNTVYLHMNSLKPEDTAVYYCAAEGVTVEWDYDYWGQGTQVTVSS”, the “polyreactivity (PSR sort gate)” value is on record as “low polyreactivity”.

For the sequence “QVQLVESGGGLVQSGGTLRLSCAASGFTFYWYAMGWYRQAPGKEREMVAAITRGGRTYYEDSVKGRFTITRDNAKNTVYLQMNSLKPEDNAVYYCYAYVSWYRTVRTKYDYWGQGTQVTVSS”, the “polyreactivity (PSR sort gate)” value is listed as “high polyreactivity”.

Take “QVPLVESVGGLVQAGGSLRLSCAASGRIFRANAMGWYRQAPGKEREFVAAINFSVSSTYAYSVKGRFTISRDNAKNTVYLQMNSLKPEDTAVYYCAATPTREGEYWGQGTQVTVSS”: the “polyreactivity (PSR sort gate)” value is listed as “low polyreactivity”.

With “QVQLVESVGGLVQAGCSLRLSCGASGRIFPWYAMGWYRPAPGKERELVAAIRWRGGGTYYADSVKGRFTISRDNAKNTVYLQMNSLKPEDTAVYYCSARRPAKGMGYWGQGTQVTVSS”, the “polyreactivity (PSR sort gate)” value is “high polyreactivity”.

On to “QVQLVESGGGLVQAGGSLRLSCAASGFTFIYYAMGRYRQAPRKERELVAAISSGGSTYYADSVKGRFTISRDNAKNTVYLQMNSLKPEDTAVYYCAAGYWWPVQYYSRYNYWGQGTQVTVSS”, for which the “polyreactivity (PSR sort gate)” value was “high polyreactivity”.

For “QVQLVESGGGLVQAGGRLRLSCAASGITFYRYAMGWYIQAPGKERELVASISSRGSSSYYADSVKGRFTISRDNAKNTVYLQRNSLKPEDTAVYYCAKSRGSRGFVASTYNYWGQGTQVTVSS”, the “polyreactivity (PSR sort gate)” value is given as “high polyreactivity”.

Regarding “QEQLVESGGGLVQAGGSLRLSGAASGGIFGRYAMGGYRQAPGKEMELVAAISKRGGSTYYADSVKGRFTISRDNAKNTVYLQMNSLKPEETAFYYCNAAQSVELGYDYWGQGTQVTVSS”, the “polyreactivity (PSR sort gate)” value was “high polyreactivity”.

As to “QVQHVESGEGLVQAGGSLRLSCAASGSIFAGYAMGWYRQAPGKERELVAAITSSGGSTYYADSVKGRFTISRDNAKNTVYLQMNSLKPEDTAVYYCAKDKLIFYRVGSDYWGQGTQVTVSS”, the “polyreactivity (PSR sort gate)” value is “low polyreactivity”.

Turning to “QVQLVESGGGLVQAGGSLRLSCAASGSTLYYYAMGWYRQAPGTERELGAAITWSGDSTYYADSVKGRFTISRDNAKNTVYLQMNSLKPEDTAVYYCAAEVESYDPYYTYDYWGQGTQVTVSS”, the “polyreactivity (PSR sort gate)” value is “high polyreactivity”.

Consider “QVQLVESGGGLVQAGGSLRLSCAASGRTSAWYAMGWYRQAPGKERDLVATISYTGGRTYYADSVKGRFTISRDNAKNTVYLQMNSLKPEDTAVYYCAKRYTSWFSSKFDYWGQGTQVTVSS”, for which the “polyreactivity (PSR sort gate)” value was “high polyreactivity”.

With “QVQLVESGGGLVQAGGSLRLSCAASGRTFYGYAMGWYRQAPGKERELVASISRDGYTNYADSVKGRFTISRDNANNTVYLQMTSLKPEDTAVYYCAADFWYYRYPIYYYSYDYWGQGTQVTVSS”, the “polyreactivity (PSR sort gate)” value was “low polyreactivity”.

For “QVQLVESGVGLVQAGGSLRLSCAASGSTFGGYAMGWYRQAPGKDTEFVAAISYDGDSTYYADSVKGRFTISRDNAKNTVYLQMNSLKPEDTAVYYCAADISYHYGVWYFYYWGQGTQVTVSS”, the “polyreactivity (PSR sort gate)” value is reported as “low polyreactivity”.

As for “QVQLVESGGGLVQAGGSLRLSCAASGRNLVQYTMGWYRQAPGKERELVAVISWRECRTYYADSVKGRFTISRDNAKNTVFLQMNSLKPVDTAVYYCATSGSFWQRYYWGQGTQVTVSS”, the “polyreactivity (PSR sort gate)” value is “low polyreactivity”.

Turning to “QVQLVESGGGLVQAGGSLRLSCAASGNTFYGYAMGWYRQAPGKERELVASITLSGDSTYYADSVKGRFTISRDNAKNTVYLQMNSLKPEDTAVYSCAGVYTYPLGYYHYTYDYWGQGTQVTVSS”, the “polyreactivity (PSR sort gate)” value was “low polyreactivity”.

For the sequence “QVQLVESGGGLVQAGGSLRLSCAASGSIFGYYAMGWYRQAPGKERELVATITWGGGSTYADSVKGRFTISRDNAKNTVYLQMNSLKPEDTAVYYCNAGYRYTSAQVTWEYDYWGQGTQVTVSS”, the “polyreactivity (PSR sort gate)” value is “low polyreactivity”.

Take “QVQLVESGGGLVQAGGSLRLSCAASGRIFYVYAMGWYRQAPGKERELVATIDWSGGSTYYADSVKGRFTISRDNAKITVYLQMNSLKPEDTAVYYCAAYYTSYWGYDYDYWGQGTQVTVSS”: the “polyreactivity (PSR sort gate)” value is given as “low polyreactivity”.

Take “QVQLVESGGGLVQAGGSLRLSCAASGFTFRSYAMGWYRQAPGKEREFVAAINGRSGSTYADSVKGRFTISRDNAKNTVYLQMNSLNPEDTAVYYCAAGQRHKNSNRPDNYWGQGSQVTVSS”: the “polyreactivity (PSR sort gate)” value is “high polyreactivity”.

On to “QVQLQESGDGLVQAVGSLRLSCAASGYISGYYYMGWYRQAPGKERELVAGIDAFGSSTNYADCVKGRFTIRRDNAKNTVYLLMNSPKPEDTAVFYCAAEFDDWDYHWYWGQGTQVTVSS”, for which the “polyreactivity (PSR sort gate)” value is listed as “low polyreactivity”.

On to “QVQLVESGGGLVQAGGSLRLSCAASGFIFRRNVMGWYRQAPGKERELVAAISRSGASTYYADSVKGRFTISRDNAKNTVYLQMNSLKPEDTAVYYCNKRDKVTYSYDYWGQGTQVTVSS”, for which the “polyreactivity (PSR sort gate)” value is on record as “high polyreactivity”.

Regarding “QVQLVESGGGLVQAGGSLRLSCAASGFTFLYNAMGWYRQAPGKERELVAAIDSGGNTNYADSVKGRFTISRDNAKNTVYLQMNSLKPEDTAVYYCAADVVSGGQGTADYDYWGQGTQVTVSS”, the “polyreactivity (PSR sort gate)” value is listed as “low polyreactivity”.

Turning to “QVQLVESGGGLVQAGGSLRLSCAASGSTFKTYAMGWYRQAPGKESELVAAISWSGGSTYYADSVKGRFTISRDNAKNTVYLQMNSLKPEDTAVYYCNAGWGYPSPWFIGEYWGQGTQVTVSS”, the “polyreactivity (PSR sort gate)” value is listed as “low polyreactivity”.

“QVQLQESGGALVQAGGSLRLSCAASGYISAGRQMGWYRQAPGKELEFVATINGGATTNYADSVKGRFTISRDNAKNSVYLQMNSLKPEDTAVYYCAAVIWYVQDYTYWGQGAQVTVSS”: the “polyreactivity (PSR sort gate)” value is reported as “high polyreactivity”.

As to “QVQLVESGGGLVQAGGSLRLSCAASGRTLYGYAMGWYRQAPGKERELVAAISKRGTRTYHADSVKGRFTISRDNAKNTVYLQMNSLKPEDTAVYFCGARYPPDEATMEYWGQGTQVTVSS”, the “polyreactivity (PSR sort gate)” value is given as “high polyreactivity”.

“QVQLVESGGGLVQAGGSLRLSCAATGIIFSWYAMGWYRQAPVKERELVATISSGAHTYYADSVKGRFTISRDNAKNTVYLQMNRLKPEDTAVYYCGAANEFGVVWAQFDYWGQGPQVTVSS”: the “polyreactivity (PSR sort gate)” value was “low polyreactivity”.
